# US20130330346A1 (Novartis, published 2013)
# Where a chain is given by its changes, count along the chain named.
# T1: Human CXCR2 (human, UniProt P25025 1-360)
# T1 sequence: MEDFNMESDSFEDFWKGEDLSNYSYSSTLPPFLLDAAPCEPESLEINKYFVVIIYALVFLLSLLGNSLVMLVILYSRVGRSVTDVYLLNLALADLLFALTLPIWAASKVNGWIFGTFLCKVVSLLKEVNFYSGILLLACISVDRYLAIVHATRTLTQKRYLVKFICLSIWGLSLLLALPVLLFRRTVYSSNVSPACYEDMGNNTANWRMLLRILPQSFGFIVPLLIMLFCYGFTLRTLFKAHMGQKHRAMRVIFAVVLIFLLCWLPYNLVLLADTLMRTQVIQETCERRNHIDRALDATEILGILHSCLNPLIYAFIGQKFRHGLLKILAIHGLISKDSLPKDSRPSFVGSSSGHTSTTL
# T2: Cynomolgus CXCR2 (cynomolgus, UniProt Q28519 3-353 (rhesus entry))
# T2 chain: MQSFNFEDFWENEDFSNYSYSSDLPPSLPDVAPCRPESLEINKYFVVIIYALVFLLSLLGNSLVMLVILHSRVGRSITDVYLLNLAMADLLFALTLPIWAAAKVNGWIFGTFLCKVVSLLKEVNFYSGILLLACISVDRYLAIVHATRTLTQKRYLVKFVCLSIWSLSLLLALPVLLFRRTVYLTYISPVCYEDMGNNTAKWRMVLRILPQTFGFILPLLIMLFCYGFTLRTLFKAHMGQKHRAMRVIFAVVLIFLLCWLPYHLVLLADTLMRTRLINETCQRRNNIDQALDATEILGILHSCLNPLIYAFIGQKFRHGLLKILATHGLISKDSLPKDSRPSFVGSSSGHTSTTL
# B1: CXCR20059 (VHH)
# VHH: EVQLLESGGGLVQPGGSLRLSCAASGSILTINAMGWYRQAPGKQRELVVRRTRGGSTTYQDSVKGRFTISADISKKTMYLQMNSLRPEDTAVYYCLLDDRGGVYWGQGTLVTVSS
# B2: CXCR20063 (VHH)
# VHH: B1 VHH with K76N
# B3: CXCR20020 (bispecific antibody)
# chain: EVQLVESGGGLVQAGESLRLSCAASGSTFDFKVMGWYRQPPGKQREGVAAIRLSGNMHYAESVKGRFTISKANAKNTVYLQMNSLRPEDTAVYYCKVNIRGQDYWGQGTQVTVSSGGGGSGGGGSGGGGSGGGGSGGGGSGGGGSGGGGSEVQLVESGGGLVQAGGSLRLSCAASGRTFSDYAMGWFRQAPGKEREFVAAITWNGGRVFYTASVKGRFTISRDNAKNTMYLQMNSLKPEDTAVYYCAADKDRRTDYLGHPVAYWGQGTQVTVSS
# notes: Biparatopic: two VHH joined by a GlySer linker; also called 127D1-35GS-163D2; 127D1-163D2; not shown: C-terminal c-myc tag and His6 tag coded by pAX100
# B4: CXCR20026 (bispecific antibody)
# chain: EVQLVESGGGLVQPGGSLRLSCVASGRIFSSNAMGWFRQAPGKEREFVAAITWRSGGSAYYADSAKGRFTISRDNAKNTVYLQMNSLKPEDTAVYYCAAGGSSWLSFPPDYWGQGTQVTVSSGGGGSGGGGSGGGGSGGGGSGGGGSGGGGSGGGGSEVQLVESGGGLVQAGESLRLSCAASGSTFDFKVMGWYRQPPGKQREGVAAIRLSGNMHYAESVKGRFTISKANAKNTVYLQMNSLRPEDTAVYYCKVNIRGQDYWGQGTQVTVSS
# notes: Biparatopic: two VHH joined by a GlySer linker; also called 163E3-35GS-127D1; 163E3-127D1; not shown: C-terminal c-myc tag and His6 tag coded by pAX100
# B5: CXCR20035 (other)
# chain: EVQLVESGGGLVQAGGSLTLSCAVSGSTFRINTMGWYRRAPGKQRELVAARDRGGYINYVDSVKGRFTVSRDNAKPTMYLQMNSLKPEDTAVYYCHAGTQDRTGRNFDRWGQGTQVTVSSGGGGSGGGGSGGGGSGGGGSGGGGSGGGGSGGGGSEVQLVESGGGLVQPGGSLRLSCVASGRIFSSNAMGWFRQAPGKEREFVAAITWRSGGSAYYADSAKGRFTISRDNAKNTVYLQMNSLKPEDTAVYYCAAGGSSWLSFPPDYWGQGTQVTVSS
# notes: Biparatopic: two VHH joined by a GlySer linker; also called 54B12-35GS-163E3; 54B12-163E3; not shown: C-terminal c-myc tag and His6 tag coded by pAX100
# B6: CXCR20014 (bispecific antibody)
# chain: EVQLVESGGGLVQPGGSLRLSCVASGSIVRINTMGWYRQTPGKQRELVADITSGGNINYIDAVKGRFTISRDNTKNTVYLQMNSLKPEDTAVYYCNAEIVVLVGVWTQRARTGNYWGQGTQVTVSSGGGGSGGGGSGGGGSGGGGSGGGGSGGGGSGGGGSEVQLVESGGELVQPGGSLRLSCAASGSILTINAMGWYRQAPGKQRELVVRRTRGGSTTYQDSVKGRFTISADIAKKTMYLQMNSLKPEDTAVYYCMLDDRGGVYWGQGTQVTVSS
# notes: Biparatopic: two VHH joined by a GlySer linker; also called 97A9-35GS-2B2; 97A9-2B2; not shown: C-terminal c-myc tag and His6 tag coded by pAX100
# B7: CXCR20034 (bispecific antibody)
# chain: EVQLVESGGGLVQAGGSLRLSCAASGRTFSDYAMGWFRQAPGKEREFVAAITWNGGRVFYTASVKGRFTISRDNAKNTMYLQMNSLKPEDTAVYYCAADKDRRTDYLGHPVAYWGQGTQVTVSSGGGGSGGGGSGGGGSGGGGSGGGGSGGGGSGGGGSEVQLVESGGELVQPGGSLRLSCAASGSILTINAMGWYRQAPGKQRELVVRRTRGGSTTYQDSVKGRFTISADIAKKTMYLQMNSLKPEDTAVYYCMLDDRGGVYWGQGTQVTVSS
# notes: Biparatopic: two VHH joined by a GlySer linker; also called 163D2-35GS-2B2; 163D2-2B2; not shown: C-terminal c-myc tag and His6 tag coded by pAX100
# Biological target: T1, Human CXCR2
# Test: cell-based or functional assay
row,FLIPR hGro-α IC50,Binder
1,390 nM,B1
2,6100 nM,B2

# Biological target: T2, Cynomolgus CXCR2
# Test: cell-based or functional assay
row,FLIPR hGro-α IC50,Binder
1,19000 nM,B1
2,24000 nM,B2

# Biological target: T1, Human CXCR2
# Test: cell-based or functional assay
# Remark: another data set of the same source
Human Chemotaxis IC50 (rhGROα),Human WBSC IC50 (rhGROα),Binder
0.143 nM,0.17 nM,B3
0.14 nM,0.165 nM,B4
,0.24 nM,B5
0.16 nM,0.445 nM,B6
0.143 nM,0.29 nM,B7

# Biological target: T2, Cynomolgus CXCR2
# Test: cell-based or functional assay
# Remark: another data set of the same source
row,Cynomologus WBSC IC50 (rhGROα),Binder
1,0.12 nM,B3
2,0.26 nM,B4
3,0.43 nM,B5
4,0.16 nM,B6
5,0.44 nM,B7

# Biological target: T1, Human CXCR2
# Test: cell-based or functional assay
# Remark: another data set of the same source
"IC50 (M) at 5 nM GROα (inhibition of GRO-α, FIG. 2)","IC50 (M) at 15 nM GROα (inhibition of GRO-α, FIG. 2)","IC50 (M) at 150 nM GROα (inhibition of GRO-α, FIG. 2)",Binder
6.53e-10 M,1.98e-09 M,6.71e-08 M,B4

# Biological target: T1, Human CXCR2
# Test: FACS competition vs 3 nM FMAT-Blue Gro-α
# Description: (§1) Multivalent anti-CXCR2Nanobodies were titrated against 3 nM FMAT-Blue-labeled Gro-α in the FACS ligand competition assay on human and cynomolgus CXCR2 (Table 14). On human CXCR2, blocking potencies range between double digit nM and sub-nM whereas on cynomolgus CXCR2, they range between single and double digit nM.
% inhibition of max,IC50,Binder
100%,0.99 nM,B3
99.5%,0.9 nM,B4
99%,1 nM,B5
99.7%,1.59 nM,B6
100%,0.8 nM,B7

# Biological target: T2, Cynomolgus CXCR2
# Test: FACS competition vs 3 nM FMAT-Blue Gro-α
# Description: as §1
% inhibition of max,IC50,Binder
98.5%,1.78 nM,B3
99%,1.82 nM,B4
99%,3.23 nM,B5
98.5%,3.9 nM,B6
99%,2.55 nM,B7

# Biological target: T1, Human CXCR2
# Test: FACS hGro-α competition
row,IC50,Binder
1,1.5 nM,B1

# Biological target: T2, Cynomolgus CXCR2
# Test: FACS hGro-α competition
row,IC50,Binder
1,19 nM,B1
2,54 nM,B2

# Biological target: T1, Human CXCR2
# Test: cell-based or functional assay
# Remark: another data set of the same source
FLIPR % inhibition of max,FLIPR IC50 (GRO-α induced calcium release),Binder
100%,6.98 nM,B3
100%,12.3 nM,B4
100%,10.2 nM,B5
100%,6.84 nM,B6
100%,11.8 nM,B7

# Biological target: T2, Cynomolgus CXCR2
# Test: cell-based or functional assay
# Remark: another data set of the same source
FLIPR % inhibition of max,FLIPR IC50 (GRO-α induced calcium release),Binder
100%,1.64 nM,B3
100%,9.1 nM,B4
100%,8.72 nM,B5
100%,13.7 nM,B6
100%,9.47 nM,B7

# Biological target: T1, Human CXCR2
# Test: cell-based or functional assay
# Remark: another data set of the same source
[35S]GTPγS % inhibition of max (ENA-78),[35S]GTPγS % inhibition of max (GRO-α),[35S]GTPγS % inhibition of max (IL-8),[35S]GTPγS IC50 (ENA-78),[35S]GTPγS IC50 (GRO-α),[35S]GTPγS IC50 (IL-8),Binder
100%,100%,100%,0.707 nM,0.634 nM,0.619 nM,B3
,100%,,,0.809 nM,,B4
100%,100%,100%,1.17 nM,0.844 nM,0.717 nM,B5
100%,100%,100%,1.66 nM,1.38 nM,1.13 nM,B6
,100%,,,0.995 nM,,B7
